Results as given in the supplement of paper PMC10567573.

B1: SLC35F2 (parent)
chain: FVAFALCMFCLYSFMPLVIKVTSA
B2: CHMP4C (parent)
chain: SSKSRAAPSPQEALVRLRETEEML

Variants of: B1
Test: protein stability index of a GFP-peptide fusion (GPS, HEK-293T) (PSI 1-6); higher = more stable
Conditions: c terminus: a fixed tail appended
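Note: lentivirally expressed fusions sorted by FACS into six bins by GFP to DsRed ratio, PSI derived from sequencing read proportions per bin multiplied by bin number.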

Protein stability index, by site and new letter:
F1: A 2.36 | C 2.46 | P 2.61 | I 3.76 | D 2.71 | M 2.59 | W 2.65 | Q 3.03 | K 2.5 | T 2.5 | R 4.03 | E 3.64 | H 3.02 | G 3.04 | V 2.51 | N 3.06 | Y 2.99 | L 3.61
F4: V 3.37 | M 2.64 | W 3.22 | C 2.52 | Y 2.33 | R 3.58 | G 2.87 | P 4.46 | N 4.39 | L 4.33 | H 2.26 | Q 2.23 | D 4.88 | E 3.18 | T 3.63 | A 2.54 | I 2.65 | K 2.01
L6: T 2.16 | K 2.38 | I 2.5 | N 3.13 | E 2.43 | C 2.33 | W 3.52 | Q 3.48 | P 2.79 | V 2.13 | H 3.22 | Y 3.21 | D 3.24 | A 2.8 | G 2.14 | S 3.91 | F 2.84
V2: A 2.72 | S 2.71 | C 2.5 | R 2.37 | P 3.21 | L 3.45 | F 2.7 | E 2.27 | Q 2.65 | N 3.7 | I 4.37 | T 4.03 | D 2.14 | K 2.97 | W 2.44 | G 3.29
C7: E 2.19 | H 3.27 | Q 3.11 | R 3.23 | D 3.08 | A 2.45 | F 2.43 | P 1.95 | N 4.12 | S 3.35 | Y 2.85 | L 2.99 | T 2.6 | I 2.35 | W 2.19 | M 3.58 | V 3.59 | K 2.46
A5: C 2.67 | D 3.05 | L 2.47 | K 2.58 | S 3.44 | R 2.84 | W 3.11 | N 1.4 | H 2.52 | Y 2.58 | M 2.38 | E 2.48 | V 2.75 | P 2.62 | I 3.68 | F 1.59
M8: C 2.4 | G 1.97 | I 2.88 | H 2.8 | A 3.8 | D 2.12 | F 2.67 | L 2.67 | E 3.62 | K 2.51
A3: V 3.02 | E 2.62 | M 2.65 | F 2.64 | L 2.38 | H 2.44 | N 2.43 | K 2.42 | W 2.55 | R 3.31 | C 2.05 | S 2.81 | P 1.98 | I 2.84 | Y 3.12 | T 2.21 | D 2.37

Variants of: B2
Test: as above
Conditions: c terminus: a fixed tail appended

Protein stability index: each site, then its substitutions
P8: L 2.46 | N 2.54 | C 1.87 | V 4 | Q 1.95 | W 2.56
E21: N 4.49 | Q 3.95 | G 3.63 | W 2.39 | I 2.83 | F 3.21 | Y 2.3 | M 4.23 | D 4 | A 4.28 | S 4.09 | T 2.81
A7: K 1.45 | V 2.56 | T 4.48 | P 1.03 | M 3.21 | Q 2.32
P10: H 4.21 | E 3.41 | W 1.67 | K 4.6 | N 4.79 | V 1.81 | Y 2.99 | C 3.05 | T 4.26 | R 4.01 | S 3.85 | Q 4.58
A6: I 2.15 | R 1.96 | F 2.83 | K 1.8 | H 1.28 | N 1.61 | Y 4.65 | D 1.81
S4: D 1.4 | T 2.58
E19: N 2.27 | I 4.1 | W 2.36 | H 2.9 | A 2.6 | P 4.63 | R 3.52 | S 3.01 | Y 1.97 | Q 1 | C 2.66 | G 2.44 | K 3.19
S1: E 1.3 | N 2.38 | H 1.97 | V 3.02
V15: K 2.48 | M 2.17 | S 2.18 | Q 3.07 | P 4.34 | D 1.85
T20: C 4.19 | P 5.12 | D 2.08 | I 3.27 | W 3.45 | V 3.14 | Q 4.83
S2: C 2.38 | E 1.86 | T 1.78 | A 2.44
R16: Y 2.22 | D 1.98 | H 1.63 | T 4.39 | Q 2.49 | E 2.24 | W 2.45 | G 3.79
E22: P 4.66 | W 1.71 | G 2.44 | I 2.92 | F 2.05 | V 2.84 | D 2.14 | T 3.01 | Q 2.31 | M 1.82
R18: K 2.15 | N 1.8 | Q 2.57 | Y 2.45 | H 5.68 | F 1.83 | P 5.12 | E 4.89 | L 4.8 | S 2.17 | D 5.46 | A 1.51
Q11: C 1.78 | A 2.68 | V 3.06 | F 1.01 | T 1.16 | P 3.7 | K 1.9
K3: D 3.17 | A 1.97 | W 1.74 | T 1.79
A13: Y 2.3 | W 3.33 | D 5.58 | Q 4.8 | K 4.47 | C 1.82 | H 3.99 | L 2.06 | G 3.34
L17: T 5.6 | R 5.53 | E 5.68 | Y 4.4 | N 4.59 | F 4.28 | S 5.01 | G 5.31 | A 4.71 | H 4.79 | I 1.76
M23: D 4.26 | W 1.55 | Q 2.38 | T 3.55 | P 4.44 | A 2.07 | K 2.15 | E 2.08 | S 3.95 | Y 1.41 | H 4.34 | F 2.24
L24: T 3.92 | N 5.32 | W 3.92 | D 5.37 | Y 3.64 | H 4.37 | S 4.53 | M 3.11 | G 4.97 | Q 5.69 | F 4.25 | R 4.22 | I 2.52 | E 5.94
S9: A 2.38 | V 3.85 | T 1.94 | R 3.19 | C 1.54 | D 1.51 | I 3.22
L14: C 2.06 | Y 2.49 | I 2.32 | T 4.6 | V 3 | R 2.92 | P 5.2 | F 4.77 | W 1.42 | S 4.33 | K 4.46 | A 3.39 | H 4.46 | M 2.41 | D 4.96
R5: T 2.17 | L 1.48 | G 1.3 | D 2.36 | C 1.78
E12: L 3.27 | G 2.23 | K 4.3 | V 2.81 | C 2.96 | F 2.75 | S 2.06 | W 2.67 | M 2.05 | H 3.06
